Reference: patent US11524977 (JIANGSU UNIVERSITY, dated 2022)

Target: Angiotensin converting enzyme (ACE EC 3.4.15.1)
Test: cell-based or functional assay

| IC50 of ACE inhibitory activity [µg/mL] | Binder |
| --- | --- |
| 14.2 | LQPP [Leu-Gln-Pro-Pro (LQPP)] |
| 19.1 | APY [Ala-Pro-Tyr (APY)] |
| 71.1 | LSLP [Leu-Ser-Leu-Pro (LSLP)] |
